{
  "source": "patent US20250144172A1",
  "about": "“ANTI-FIBROTIC SIALIDASE INHIBITOR COMPOUNDS AND METHODS OF USE” (The Texas A&M University System, priority 2016, published 2025)",
  "molecules": {"B1": {"name": "NEU4: recombinant human NEU4 (sialidase 4), human neuraminidase 4 (protein, UniProt Q8WWR8 1-484, looked up)", "Sialidase-4": "MGVPRTPSRTVLFERERTGLTYRVPSLLPVPPGPTLLAFVEQRLSPDDSHAHRLVLRRGTLAGGSVRWGALHVLGTAALAEHRSMNPCPVHDAGTGTVFLFFIAVLGHTPEAVQIATGRNAARLCCVASRDAGLSWGSARDLTEEAIGGAVQDWATFAVGPGHGVQLPSGRLLVPAYTYRVDRRECFGKICRTSPHSFAFYSDDHGRTWRCGGLVPNLRSGECQLAAVDGGQAGSFLYCNARSPLGSRVQALSTDEGTSFLPAERVASLPETAWGCQGSIVGFPAPAPNRPRDDSWSVGPGSPLQPPLLGPGVHEPPEEAAVDPRGGQVPGGPFSRLQPRGDGPRQPGPRPGVSGDVGSWTLALPMPFAAPPQSPTWLLYSHPVGRRARLHMGIRLSQSPLDPRSWTEPWVIYEGPSGYSDLASIGPAPEGGLVFACLYESGARTSYDEISFCTFSLREVLENVPASPKPPNLGDKPRGCCWPS"}, "B2": {"name": "NEU3: recombinant human sialidase NEU3 (TP316537, Origene) (protein, UniProt Q9UQ49 1-428, looked up)", "Sialidase-3": "MEEVTTCSFNSPLFRQEDDRGITYRIPALLYIPPTHTFLAFAEKRSTRRDEDALHLVLRRGLRIGQLVQWGPLKPLMEATLPGHRTMNPCPVWEQKSGCVFLFFICVRGHVTERQQIVSGRNAARLCFIYSQDAGCSWSEVRDLTEEVIGSELKHWATFAVGPGHGIQLQSGRLVIPAYTYYIPSWFFCFQLPCKTRPHSLMIYSDDLGVTWHHGRLIRPMVTVECEVAEVTGRAGHPVLYCSARTPNRCRAEALSTDHGEGFQRLALSRQLCEPPHGCQGSVVSFRPLEIPHRCQDSSSKDAPTIQQSSPGSSLRLEEEAGTPSESWLLYSHPTSRKQRVDLGIYLNQTPLEAACWSRPWILHCGPCGYSDLAALEEEGLFGCLFECGTKQECEQIAFRLFTHREILSHLQGDCTSPGRNPSQFKSN"}, "B3": {"name": "NEU2: recombinant human NEU2 (sialidase 2), human neuraminidase 2 (protein, UniProt Q9Y3R4 1-380, looked up)", "Sialidase-2": "MASLPVLQKESVFQSGAHAYRIPALLYLPGQQSLLAFAEQRASKKDEHAELIVLRRGDYDAPTHQVQWQAQEVVAQARLDGHRSMNPCPLYDAQTGTLFLFFIAIPGQVTEQQQLQTRANVTRLCQVTSTDHGRTWSSPRDLTDAAIGPAYREWSTFAVGPGHCLQLHDRARSLVVPAYAYRKLHPIQRPIPSAFCFLSHDHGRTWARGHFVAQDTLECQVAEVETGEQRVVTLNARSHLRARVQAQSTNDGLDFQESQLVKKLVEPPPQGCQGSVISFPSPRSGPGSPAQWLLYTHPTHSWQRADLGAYLNPRPPAPEAWSEPVLLAKGSCAYSDLQSMGTGPDGSPLFGCLYEANDYEEIVFLMFTLKQAFPAEYLPQ"}},
  "key": {"human PBMC [1]": {"system": "human PBMC", "assay": "fibrocyte formation in human PBMC, serum-free medium", "assay_type": "cell-based", "conditions": "5 days; for ability of SAP to inhibit fibrocyte formation: 100 ng/ml sialidase with 1 μg/ml SAP; for fibrocyte formation / differentiation: 100 ng/ml sialidase, 10 μg/ml DANA or 1 μg/ml SAP", "description": "Human peripheral blood was collected from healthy adult volunteers who gave written consent and with specific approval from the Texas A&M University human subjects Institutional Review Board. Peripheral blood mononuclear cells (PBMC) were isolated from blood using Ficoll-Paque Plus (GE Healthcare Biosciences, Piscataway, NJ). Human PBMC were incubated in serum-free medium (FibroLife basal media (LM-0001, Lifeline Cell Technology, Walkersville, MD), supplemented with 10 mM HEPES (Sigma-Aldrich, St. Louis, MO), 1x non-essential amino acids (Sigma-Aldrich), 1 mM sodium pyruvate (Sigma-Aldrich), 2 mM glutamine (Invitrogen, Carlsbad, CA), 100 U/ml penicillin, 100 μg/ml streptomycin (Sigma-Aldrich), and 1x ITS-3 (Sigma-Aldrich) in the presence of absence of 100 ng/ml recombinant human sialidases (Origene, Rockville MD), 10 μg/ml DANA (Calbiochem, San Diego, CA), or 1 μg/ml human SAP (Calbiochem). After 5 days, fibrocytes were counted, and results are presented in FIG. 5."}, "[2]": {"assay": "recombinant human sialidase activity, 4MU-NANA cleavage at pH 6.4 and 7.0", "assay_type": "biochemical", "description": "In general, sialidase activity, including human sialidase activity, may be assessed at 37° C. in the presence of buffers ranging in pH from 3.7 to 7.4. Buffers with pH 3.7, 4.0, 4.6, 5.2 and 5.6 are 100 mM sodium acetate buffers. Buffers with pH 5.8, 6.4, 7.0 and 8.0 are based on Phosphate-Buffered Saline (PBS), with addition of 12 N HCl or 1 M NaOH to adjust the pH. Bovine serum albumin (BSA) is added to the buffer at a concentration of 100 ug/ml. Sialidase at a final concentration of 300 ng/ml is then added to the buffer. A sialidase inhibitor is then added to the mixture at a series of final concentrations. The reaction mixture is incubated for 30 minutes to allow the inhibitor to bind the sialidase. The fluorometric substrate 4MU-NANA [2′-(4-Methylumbelliferyl)-α-D-N-acetylneuraminic acid sodium salt hydrate is then added at a final concentration of 200 μM. Control reactions have no added inhibitor. The total volume of each reaction mixture is 0.1 ml. The cleavage of 4MU-NANA is then monitored by fluorescence every 20 minutes for 5 hours with excitation light at 360 nm and the fluorescence emission at 460 nm.\nThe fluorescence in the absence of sialidases is subtracted from all readings. The fluorescence of known concentrations of 4-methylumbelliferone is used to convert fluorescence to moles of product.\nTo determine if sialidases have enzymatic activity at the pH of the extracellular environment, sialidases may be assayed at pH 7.0, approximately corresponding to an extracellular pH in a normal tissue, at pH 6.4, approximately corresponding to an extracellular pH in a fibrotic tissue, or both.\nIn an example assay, recombinant human sialidases were assayed at pH 6.4, approximately corresponding to the extracellular pH that might occur in a fibrotic tissue, and at pH 7.0, approximately corresponding to a normal extracellular pH."}, "human PBMC [3]": {"system": "human PBMC", "assay": "TGF-β1 accumulation by human PBMC (antibody staining and ELISA)", "assay_type": "cell-based", "conditions": "recombinant sialidase 200 ng/ml; five days", "description": "To determine if sialidases might cause cells to accumulate intracellular and extracellular TGF-β1, human PBMC were cultured with sialidases in 96 well plates at 5×10^5 cells/ml and 200 μl/well in FibroLife serum-free medium for five days, then air dried. The levels of TGF-β1 in or on the cells was detected by staining with an antibody against TGF-β1. Photomicrographs were analyzed by counting stained cells (FIG. 7B) and quantifying staining intensity using ImageJ (FIG. 7C).\nPBMC were cultured in 96 well plates at 5×10^5 cells/ml and 200 μl/well in FibroLife serum-free medium. When the cells were plated, recombinant human sialidases were added to final concentrations of 200 ng/ml, and DANA or oseltamivir were added to 3 μM. After 5 days, culture supernatants were analyzed using a TGF-β1 ELISA kit (R&D Systems)."}, "human PBMC [4]": {"system": "human PBMC", "assay": "IL-6 ELISA of supernatants of human PBMC cultured with NEU3", "assay_type": "cell-based", "conditions": "presence or absence of serum; two or five days", "description": "To determine the effects of NEU3 on IL-6 production in human PBMC, human peripheral blood was collected from healthy volunteers who gave written consent and with specific approval from the Texas A&M University human subjects review board. PBMC were isolated from the blood using Ficoll-Paque density gradient centrifugation (GE Healthcare, Cincinnati, OH) following the manufacture's protocol. PBMCs were cultured at 10^5 cells/ml in each well of 96-well flat bottom tissue culture plates (VWR, Radnor, PA) with RPMI-1640 (VWR) supplemented with 10% bovine calf serum (BCS) (VWR), 100 U/ml penicillin, 100 μg/ml streptomycin, (VWR) and 2 mM glutamine (VWR) in a final volume of 200 μl per well. Cells were also cultured at 10^5 cells/ml in serum-free medium as described previously in Pilling, D., Vakil, V. & Gomer, R. H. Improved serum-free culture conditions for the differentiation of human and murine fibrocytes. […]\nThe culture supernatants were collected after two or five days and assayed using an IL-6 ELISA kit (BioLegend, San Diego, CA) following the manufacturer's protocol, reading absorbance with a SynergyMX plate reader (BioTek, Winooski, VT). Statistics were analyzed using Prism software (Graphpad, La Jolla, CA)."}, "human PBMC [5]": {"system": "human PBMC", "assay": "sialidase staining of human PBMC cultured with recombinant sialidases", "assay_type": "cell-based", "description": "In a similar experiment, cells were stained for NEU1, NEU2, NEU3, or NEU4 using antibodies."}},
  "data": [
    {"molecule": "B1", "values": [
      {"measurement": "ability of SAP to inhibit fibrocyte formation", "setting": "human PBMC [1]", "value": "partially counteracted"},
      {"measurement": "fibrocyte formation / differentiation", "setting": "human PBMC [1]", "value": "potentiated fibrocyte formation"},
      {"measurement": "Sialidase activity", "setting": "[2]; pH 6.4", "value": "3.8 ± 0.8", "unit": "μmole/min/mg protein"},
      {"measurement": "Sialidase activity", "setting": "[2]; pH 7.0", "value": "2.6 ± 0.9", "unit": "μmole/min/mg protein"},
      {"measurement": "accumulation of TGF-β1", "setting": "human PBMC [3]", "value": "no significant effect"}
    ]},
    {"molecule": "B2", "values": [
      {"measurement": "ability of SAP to inhibit fibrocyte formation", "setting": "human PBMC [1]", "value": "partially counteracted"},
      {"measurement": "Sialidase activity", "setting": "[2]; pH 6.4", "value": "15.2 ± 1.0", "unit": "μmole/min/mg protein"},
      {"measurement": "Sialidase activity", "setting": "[2]; pH 7.0", "value": "8.3 ± 1.2", "unit": "μmole/min/mg protein"},
      {"measurement": "accumulation of TGF-β1", "setting": "human PBMC [3]", "value": "increased both cell-associated and extracellular TGF-β1"},
      {"measurement": "extracellular accumulation of IL-6", "setting": "human PBMC [4]", "value": "significantly upregulated"}
    ]},
    {"molecule": "B3", "values": [
      {"measurement": "ability of SAP to inhibit fibrocyte formation", "setting": "human PBMC [1]", "value": "partially counteracted"},
      {"measurement": "fibrocyte formation / differentiation", "setting": "human PBMC [1]", "value": "potentiated fibrocyte formation"},
      {"measurement": "Sialidase activity", "setting": "[2]; pH 6.4", "value": "16.4 ± 1.2", "unit": "μmole/min/mg protein"},
      {"measurement": "Sialidase activity", "setting": "[2]; pH 7.0", "value": "8.9 ± 1.2", "unit": "μmole/min/mg protein"},
      {"measurement": "levels of NEU3 in PBMC", "setting": "human PBMC [5]", "value": "upregulate levels of NEU3"},
      {"measurement": "accumulation of TGF-β1", "setting": "human PBMC [3]", "value": "increased both cell-associated and extracellular TGF-β1"}
    ]}
  ]
}
